In the supplement of paper PMC9170038:

Test system: MS2 coat protein
Test: apparent KD of MS2 coat protein; designed switch direction (-1 OFF switch, 1 ON switch): 1; higher = weaker reporter binding
Summary of the method: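 Transcription of designed RNA switches on Illumina chips was done by stalled E. coli RNA polymerase. SNAP-549-labelled MS2 coat protein was then titrated in doubling steps from 0.7 or 1.5 nM to 3 µM, with steps of 0.8–1.5 h at the lowest and 10–20 min at the highest concentration. The per-design median over clusters of curve-fitted normalised fluorescence is reported as apparent KD.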

[1] = Eterna round: R95, input ligand: microRNA oligo, concentration not stated
[2] = input ligand: microRNA oligo, concentration not stated
[3] = Eterna round: R95, input ligand: FMN 200 uM
[4] = Eterna round: R95, input ligand: none

| Sequence | apparent KD of MS2 coat protein [1] [nM] | apparent KD of MS2 coat protein (input ligand: FMN 200 uM) [nM] | apparent KD of MS2 coat protein [2] [nM] | apparent KD of MS2 coat protein (input ligand: none) [nM] | apparent KD of MS2 coat protein [3] [nM] | apparent KD of MS2 coat protein [4] [nM] |
| --- | --- | --- | --- | --- | --- | --- |
| CAGUGCUGUUGAGAGGAUAUGCGGCGACGGACAUGAGGAUCACCCAUGUUAGCGACAGCGUUGCGGCAGAAGGCUCUGCCCGCUA [Soteed Omei mod 51] (puzzle: Same State 2) | 39.3 |  |  |  |  |  |
| ACAUAGGUUUCAGGAUAUGGGUAAAUUCCCAACAUGAGGAUCACCCAUGUCCGUUGGGAUAACAUCCAGAAGGGAAGCCACAUA [MOD2 Eternabot Solution 1 (Score 87.5)] (Eterna round: R96, puzzle: Same State NG 2) |  | 215 | 88.1 | 390 |  |  |
| AGAAAACAUGAGGAUCACCCAUGUAUAGUGAAUACAGGAUAUCAUCGACGGAAUAGUUGAUGAGAAGGGUGAUCGC [Gebiatan] (puzzle: Same State 1) | 14.4 |  |  |  | 13.2 | 10.4 |
| CCAAAUUGAAUCCACAUGAGGAUCACCCAUGUCCAACCGGUCUAGGAUAUCACAGCAAGCGCGUGUGAGAAGGAGAAAACAAGC [Eternabot solution 34] (Eterna round: R96, puzzle: Same State NG 3) |  | 42.1 | 21 | 43.4 |  |  |
| GCCAACGCAUGAGGAUAUGGCACCUUAUUGGUGCCAGAAGGUAUGUGUAUUCACAUGAGGAUCACCCAUGUAUUAUAGUUGGCA [Fiskers NG1ss - 17] (Eterna round: R96, puzzle: Same State NG 1) |  | 53.7 | 146 | 183 |  |  |
| GGAGGACAUGAGGAUCACCCAUGUGGAUGAUCGCUAGGAUAUGCGUAAAGGAGGAGUGGUGCAGAAGGAGUGGGAU [JR_SS1_Sub050] (puzzle: Same State 1) | 261 |  |  |  |  |  |
| ACAAGCUUUUCUGUAUUGAAAGGUGGGAUACAUGAGGAUCACCCAUGUUUUUUUGUUUAUUUUUUUCCUCGUCUUAU [JR_SHM208A_Sub088] (puzzle: Sensor for hsa-mir-208a) | 37.8 |  |  |  | 34.3 | 34.3 |
| AACAAGCACAUGAGGAUCACCCAUGUGAGAAUAAAACCCUCAUAGGAUAUCCGCGGUUAACUCCCGGAGAAGGGUGAGACUCCU [Edtiedus] (Eterna round: R96, puzzle: Same State NG 3) |  | 266 | 429 | 390 |  |  |
| CCAACGUACAAUUUAGAUCUACAUGAGGAUCACCCAUGUACGGAGGAUAUCAGCUCGAAUAGAGCUGAGAAGGCCGAAUUAAUU [SSNG3/2-A1] (Eterna round: R96, puzzle: Same State NG 3) |  |  | 248 |  |  |  |
| AUAUAUAUAAGGAAGGAUAUCUUAGAAAAAACAUGAGGAUCACCCAUGUAAAUAAAGAAUAAAUGGGAGAAGGUCCAUAUAUAUA [77%, More Tesla, 10] (Eterna round: R96, puzzle: Same State 2) |  |  | 22 |  |  |  |
| GGAAUAUUUACAGGAUAUGAGUUGUAAAGUCGAUCAGAAGGGUAGGUGUCUUGCACGGUGUGUUACAUGAGGAUCACCCAUGUU [SameState NG1 #21] (Eterna round: R96, puzzle: Same State NG 1) |  | 156 | 116 | 128 |  |  |
| UGUUGUAUUACAGGAUAUCUAUUAUUUUUGUUUAGAGAAGGGUAUUCACAUGAGGAUCACCCAUGUAUAUACGAGGAAGUUGUG [JMF's solution 24] (Eterna round: R96, puzzle: Same State NG 1) |  |  | 37.6 |  |  |  |
| CUGAGCAAGCAAGGAUAUCACGUCGUUUAGACGUGAGAAGGUGCUCCUUACAUGAGGAUCACCCAUGUAUAACAUGAAGCUCAG [SSNG1/10-A3] (Eterna round: R96, puzzle: Same State NG 1) |  | 150 | 273 | 870 |  |  |
| GUAGCAUGCAGGCAGGAUAUUCAUAUUAAAACAUGAGGAUCACCCAUGUAGGCCAAAAGGCCUUGGGAGAAGGGCCACAUGCUAC [Xeonanis - 19] (puzzle: Same State 2) | 488 |  |  |  | 34.9 | 842 |
| AGCUAUUAAUCAGGAUAUGGUCACAUGAGGAUCACCCAUGUAACGAUGAUAUAAUGUGGUCAAAACUAGAAGGGAUUGCUAACA [SameState NG2 #65] (Eterna round: R96, puzzle: Same State NG 2) |  | 341 | 216 | 290 |  |  |
| GGCCUCUGUCAAGGAUAUGCUACCGUUUCGGUAGCAGAAGGUGAUCACAUGCGGGUCACCCAUGUUUAGGCCCUCUGGCCCGCC (Eterna round: R96, puzzle: Same State NG 1) |  | 19.1 | 10.2 | 18.6 |  |  |
| GUUUUUAGUGCAGGAUAUGAUCAACAUGAGGAUCACCCAUGUGGCGUUGUGAGUAGGGAGAGAGAUCAGAAGGGCGUCUCCGCG [SS-NG2-LRO13] (Eterna round: R96, puzzle: Same State NG 2) |  | 51.5 | 37 | 57.3 |  |  |
| GGCUGCAAUUAUGAGGAUAUGUUCGGAUGAACAUGAGGAUCACCCAUGUGGCGAUAGCUAUCUGUGCAGAAGGUGUAGUGGUAGC [Edlexete] (Eterna round: R96, puzzle: Same State 2) |  | 57.9 | 90.7 | 186 |  |  |
| UCGUCCUCGUGCUAGGAUAUCCAUCGUAAAACAUGAGGAUCACCCAUGUAGAAAUGCGCCUACGAGGAGAAGGAGCGAUGUGGAU [Velemageer] (Eterna round: R96, puzzle: Same State 2) |  |  | 14 |  |  |  |
| GAGUUACAUGAGGAUCACCCAUGUGGUUGUGGAUAAGGAUAUAUGGUAGGAGGAGGAAUGAUAGAAGGUAUUAGGG [JR_SS1_Sub065] (puzzle: Same State 1) | 52.9 |  |  |  |  |  |
| UUCACCUUUUUUUACAUGAGGAUCACCCAUGUUUUCCCUACGUAGGAUAUCGAUGCUUGAUUGUUCGAGAAGGACGUUGUAAGU [JR_SSND3_Sub056] (Eterna round: R96, puzzle: Same State NG 3) |  | 29.6 | 20.7 | 33.7 |  |  |
| GUGGAGGGUUGAGGAUAUUGAUUGCAUAUGUUUAACAUGAGGAUCACCCAUGUGGGUUGCGGUUUCGAGAAGGUAGGUUGCUGG [salish99_SSNG2_r04_042] (Eterna round: R96, puzzle: Same State NG 2) |  | 80.8 | 59.4 | 72.2 |  |  |
| UGUUGUAUUACAGGAUAUCUAUUAGUUUUAAUUAGAGAAGGGUAUUCACAUGAGGAUCACCCAUGUAUAUACGAGGAAGUUGUG [JMF's solution 98] (Eterna round: R96, puzzle: Same State NG 1) |  |  | 33.8 |  |  |  |
| UGUUGUAUUACAGGAUAUCUAUUGUUUUUAUAUAGAGAAGGGUAUUCACAUGAGGAUCACCCAUGUAUAUACGAGGAAGUUGUG [JMF's solution 84] (Eterna round: R96, puzzle: Same State NG 1) |  |  | 33.2 |  |  |  |
| AGAUCAUGACGAGGAUAUGGUACAUGAGGAUCACCCAUGUAUGUACCACGACGCGUACGUCGAAUCCAGAAGGCGUCAUGGUCA [Mat - Same State NG 2 - JL mod - D17] (Eterna round: R96, puzzle: Same State NG 2) |  | 17.8 | 51.3 | 119 |  |  |
